Where “and” joins values, the source holds several entries; their conditions need not be identical. Identical values can stand only once.

We go through seven substances from article PMC9138599, “Clade-Specific Alterations within the HIV-1 Capsid Protein with Implications for Nuclear Translocation” (Biomolecules, 2022).

For assay [1], the target named is HIV-1 CA hexamer from clade C (isolate 92BR025.8) (HIV-1 isolate 92BR025.8 (clade C)). The assay can be described thus: cross-linking.
Assay [2] concerns the target HIV-1 CA hexamer from clade A1 (isolate 92UG037.1) (HIV-1 isolate 92UG037.1 (clade A1)). The assay can be described thus: cross-linking.
For assay [3], the target named is HIV-1 CA hexamer from clade A2 (isolate CDKTB48) (HIV-1 isolate CDKTB48 (clade A2)). The assay can be described thus: cross-linking.
Assay [4] addresses HIV-1 CA hexamer from clade B (isolate NL4-3) (HIV-1 isolate NL4-3 (clade B)). The assay can be described thus: cross-linking.
For assay [5], the target named is HIV-1 CA hexamer from clade D (isolate 94UG114.1) (HIV-1 isolate 94UG114.1 (clade D)). The assay can be described thus: cross-linking.
Assay [6] addresses NUP-153 RRR patch (Homo sapiens) (UniProt P49790). The following applies: cited from earlier work.
Assay [7] has as its target HIV-1 CA hexamer from clade C (isolate 92BR025.8) (HIV-1 isolate 92BR025.8 (clade C)). The assay can be described thus: SPR; CA hexamer amine-coupled to a ProteOn GLH chip, peptide injected as analyte; 25 °C; 1x PBS pH 7.4, 3% DMSO, 0.005% polysorbate 20; reference surface IgG b12; 1:1 binding model; KD from a Langmuir isotherm equilibrium fit and from a global kinetic fit; triplicate. On the technique in general: SPR reads the build-up and loss of mass on a sensor chip optically.

Assay [8] has as its target HIV-1 CA hexamer from clade D (isolate 94UG114.1) (HIV-1 isolate 94UG114.1 (clade D)). Described as above.
The target of assay [9] is HIV-1 CA hexamer from clade A2 (isolate CDKTB48) (HIV-1 isolate CDKTB48 (clade A2)). The description is as above.

For “HIV-1 CA hexamer from clade C (isolate 92BR025.8) (natural protein)”, the stoichiometry N (commonly the number of molecules, sites or subunits per partner or assembly) in [1] worked out at 6.

In turn, “HIV-1 CA hexamer from clade A1 (isolate 92UG037.1) (natural protein)” registered a stoichiometry N in assay [2] of 6.

In assay [3], “HIV-1 CA hexamer from clade A2 (isolate CDKTB48) (natural protein)” returned a stoichiometry N of 6.

“HIV-1 CA hexamer from clade B (isolate NL4-3) (natural protein)”: the stoichiometry N in [4] turned out to be 6.

“HIV-1 CA hexamer from clade D (isolate 94UG114.1) (natural protein)” came in with a stoichiometry N in assay [5] of 6.

On to CA (from UniProt O93215), for which, in [6], the Kd (commonly a measure of binding affinity in units of concentration) was 0.8 µM.

For the substance NUP-153 peptide (1407-…-1423), the Kd was 503 µM and 881 µM in [7]; 309 µM and 368 µM in assay [8]; 443 µM and 746 µM in assay [9].
